# From paper doi:10.1101/2023.10.23.563088
# How the values were obtained:
# [1] = molecular target: gramicidin D (the natural mixture of linear gramicidins)
# [2] = molecular target: gramicidin D (the natural mixture of linear gramicidins); remark: listed apart in the source
substance,measurement,setting,value
gramicidin D (the natural mixture of linear gramicidins) (peptide),"ANTS fluorescence quench rate by Tl+ entering DC22:1PC LUVs through gramicidin channels (GFA), rate relative to control, with remdesivir 1 to 3 μM (no observable effect at 1 μM)",[1],2 fold
same,"ANTS fluorescence quench rate by Tl+ entering DC22:1PC LUVs through gramicidin channels (GFA), rate relative to DMSO control, with ivermectin 1 to 10 μM (12-fold at 1 μM)",[2],17 fold
